# In US20240052052A1:
# How the values were obtained:
# [1] = target: human CD24 (human) (UniProt P25063); experiment: FACS, H1975 cells
# [2] = target: human CD24 (human) (UniProt P25063); experiment: FACS, CHOK1-hCD24 cells
# [3] = target: human CD24 (human) (UniProt P25063); experiment: FACS, 5637 cells
# [4] = target: human CD24 (human) (UniProt P25063); experiment: FACS, MCF7 cells
# [5] = target: human CD24 (human) (UniProt P25063); experiment: FACS, Nalm1 cells
# [6] = target: human CD24 (human) (UniProt P25063); experiment: FACS, OCI-LY1 cells
# [7] = target: human CD24 (human) (UniProt P25063); experiment: FACS, 293F-hCD24 cells
# [8] = target: human CD24 (human) (UniProt P25063); experiment: FACS, MDA-MB-468 cells
# [9] = target: human CD24 (human) (UniProt P25063); experiment: FACS, HT-29 cells
# [10] = target: human CD24 (human) (UniProt P25063); experiment: FACS, SU-DHL6 cells
# [11] = target: human CD24 (human) (UniProt P25063); experiment: FACS, OCI-LY7 cells
# [12] = target: human CD24 (human) (UniProt P25063); experiment: FACS, A549 cells
# human CD24 (human), sequence (P25063 27-59): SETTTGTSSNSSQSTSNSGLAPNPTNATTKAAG
substance,measurement,setting,value
mIgG ctrl (antibody),FACS MFI,[1],203
same,Max MFI,[1],203
same,FACS MFI,[2],177
same,Max MFI,[2],189
same,FACS MFI,[3],185
same,Max MFI,[3],185
same,FACS MFI,[4],187
same,Max MFI,[4],187
same,FACS MFI,[5],175
same,Max MFI,[5],175
same,FACS MFI,[6],197
same,FACS MFI,[7],185
same,Max MFI,[7],185
same,FACS MFI,[8],190
same,Max MFI,[8],190
same,FACS MFI,[9],194
same,Max MFI,[9],194
same,FACS MFI,[10],188
same,FACS MFI,[11],186
same,FACS MFI,[12],167
same,Max MFI,[12],167
